Among the data in PMC3804511 are Kic1 kinase activity (reaction rate over 15 min on GST-Cbk1(673-756)-His6) with Hym1 relative to without Hym1 and half maximal activation (Kact) of Kic1 kinase activity (32P transferred to GST-Cbk1(673-756)-His6); Hym1 in 2-fold serial dilutions from 13 µM, Kic1 constant values, retold here.

For experiment [1], the target named is T1, GST-Kic1(1-359)-His6 (wild type) (S. cerevisiae) (UniProt P38692).
T1 sequence: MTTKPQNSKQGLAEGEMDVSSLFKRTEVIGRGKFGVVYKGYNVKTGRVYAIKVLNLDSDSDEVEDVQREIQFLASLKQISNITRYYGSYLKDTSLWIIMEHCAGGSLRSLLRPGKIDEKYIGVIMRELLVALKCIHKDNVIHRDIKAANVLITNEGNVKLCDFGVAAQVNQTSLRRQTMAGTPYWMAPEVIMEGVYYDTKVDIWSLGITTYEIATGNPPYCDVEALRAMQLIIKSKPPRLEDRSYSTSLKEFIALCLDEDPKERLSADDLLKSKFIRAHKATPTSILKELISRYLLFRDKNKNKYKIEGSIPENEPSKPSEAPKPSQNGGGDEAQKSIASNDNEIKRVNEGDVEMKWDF

The target in experiment [2] is T1, GST-Kic1(1-359)-His6 (wild type) (S. cerevisiae). The source holds these as a separate data set.

B1: Hym1-His6 (full length, GST cleaved) (natural protein)
chain: MFKKYKNQDLDMAFWWKKNPKTPSDYARLIIEQLNKFSSPSLTQDNKRKVQEECTKYLIGTKHFIVGDTDPHPTPEAIDELYTAMHRADVFYELLLHFVDLEFEARRECMLIFSICLGYSKDNKFVTVDYLVSQPKTISLMLRTAEVALQQKGCQDIFLTVGNMIIECIKYEQLCRIILKDPQLWKFFEFAKLGNFEISTESLQILSAAFTAHPKLVSKEFFSNEINIIRFIKCINKLMAHGSYVTKRQSTKLLASLIVIRSNNALMNIYINSPENLKLIMTLMTDKSKNLQLEAFNVFKVMVANPRKSKPVFDILVKNRDKLLTYFKTFGLDSQDSTFLDEREFIVQEIDSLPRIISSTTEVSNNNASSSNVASITSPSSVMNNQSSILTHSTSPDSR
With B1, the Kic1 kinase activity (reaction rate over 15 min on GST-Cbk1(673-756)-His6) with Hym1 relative to without Hym1 in experiment [1] was > 5 fold. Also, in experiment [2], the half maximal activation (Kact) of Kic1 kinase activity (32P transferred to GST-Cbk1(673-756)-His6); Hym1 in 2-fold serial dilutions from 13 µM, Kic1 constant at 0.5 µM is 2 µM.
